Results reported in article PMC10228544 (Science immunology, 2023).
Where a chain is given by its changes, count along the chain named. Names may count otherwise. Each block holds one binder with its values, some of them ahead of it.

Biological target: Alexa-Fluor-488-conjugated recombinant hCD19-hFc (Homo sapiens, UniProt P15391, Alexa Fluor 488 conjugate)
Test: flow cytometry on cells

Chain of Alexa-Fluor-488-conjugated recombinant hCD19-hFc (P15391 20-291): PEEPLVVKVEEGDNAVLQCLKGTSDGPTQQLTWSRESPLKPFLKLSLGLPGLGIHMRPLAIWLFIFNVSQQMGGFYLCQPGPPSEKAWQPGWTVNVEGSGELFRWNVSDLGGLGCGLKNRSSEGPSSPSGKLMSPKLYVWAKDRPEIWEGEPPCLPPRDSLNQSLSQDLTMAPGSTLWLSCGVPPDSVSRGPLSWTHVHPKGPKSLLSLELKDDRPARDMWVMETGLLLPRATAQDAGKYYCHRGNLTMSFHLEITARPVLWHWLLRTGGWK

binding result: binds
B1: FMC63^Y261A CAR on CAR T cells (receptor)
VH: EVKLQESGPGLVAPSQSLSVTCTVSGVSLPDYGVSWIRQPPRKGLEWLGVIWGSETTYYNSALKSRLTIIKDNSKSQVFLKMNSLQTDDTAIYYCAKHYYAGGSYAMDYWGQGTSVTVSS
VL: DIQMTQTTSSLSASLGDRVTISCRASQDISKYLNWYQQKPDGTVKLLIYHTSRLHSGVPSRFSGSGSGTDYSLTISNLEQEDIATYFCQQGNTLPYTFGGGTKLEIT

binding result: binds
B2: SJ25C1^WT CAR (SJ25C1 scFv, CD28, CD3-zeta) on CAR T cells (receptor)
VH: EVKLQQSGAELVRPGSSVKISCKASGYAFSSYWMNWVKQRPGQGLEWIGQIYPGDGDTNYNGKFKGQATLTADKSSSTAYMQLSGLTSEDSAVYFCARKTISSVVDFYFDYWGQGTTVTVSS
VL: DIELTQSPKFMSTSVGDRVSVTCKASQNVGTNVAWYQQKPGQSPKPLIYSATYRNSGVPDRFTGSGSGTDFTLTITNVQSKDLADYFCQQYNRYPYTSGGGTKLEIK

The next lines start with the binder.

B3: SJ25C1^I120V CAR on CAR T cells (receptor)
VH: B2 VH with I101V
VL: B2 VL
binding result: binds

B4: SJ25C1^W52F CAR on CAR T cells (receptor)
VH: B2 VH with W33F
VL: B2 VL
binding result: binds
